The term Kd denotes a measure of binding affinity in units of concentration.

Like-named read-outs stand apart in the source and are kept apart here. A value given as a limit tells only on which side of the number the result lay.

Drawing on patent US20250179183A1 (BIOMOLECULAR, published 2025), this text covers Kd for three molecules.

Experiment [1] has as its target cynomolgus monkey CD32a (cynomolgus monkey).
For experiment [2], the target named is cynomolgus monkey CD32b (cynomolgus monkey).
Experiment [3] deals with T1, cynomolgus monkey CD64 (cynomolgus monkey, UniProt A0A2K5U901 33-309).
T1 sequence (A0A2K5U901 entry or part of it limits assumed, form in doubt): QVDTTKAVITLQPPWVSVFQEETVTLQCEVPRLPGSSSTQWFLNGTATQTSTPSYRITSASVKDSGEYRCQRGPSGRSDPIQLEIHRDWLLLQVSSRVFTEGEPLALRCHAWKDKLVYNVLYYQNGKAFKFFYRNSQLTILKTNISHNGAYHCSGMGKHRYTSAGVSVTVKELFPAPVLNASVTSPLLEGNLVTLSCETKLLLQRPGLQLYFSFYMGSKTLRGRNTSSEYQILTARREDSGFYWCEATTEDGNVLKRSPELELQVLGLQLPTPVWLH
Experiment [4] addresses cynomolgus monkey CD32a (cynomolgus monkey). The source holds these as a separate data set.
Experiment [5] concerns the target cynomolgus monkey CD32b (cynomolgus monkey). The source holds these as a separate data set.
Experiment [6] has as its target T1, cynomolgus monkey CD64. This is another data set of the same source.

B1: HB2198 (bispecific antibody, human IgG1, kappa)
heavy 1: QVQLVQSGGGVVQPGRSLRLSCAASGVSLPDYGVSWVRKAPGKGLEWVAVIWGSETTYYNSALKSRFTISRDNSKNTLYLQMSSLRAEDTAVYYCAKHYYYGGSFAMDYWGQGTLVTVSSASTKGPSVFPLAPSSKSTSGGTAALGCLVKDYFPEPVTVSWNSGALTSGVHTFPAVLQSSGLYSLESVVTVPSSSLGTQTYICNVNHKPSNTKVDKKVEPKSCTDWSPYADQSIKVRISLKSALGDKAYEWNDNEMYLFRSSVAYAMRQYFLKVKNQMILFGEEDVRVANLKPRISFNFFVTAPKNVSDIIPRTEVEKAIRMSRSRINDAFRLNDNSLEFLGIQPTLGPPNQPPVSTSTSPTRSMAPGAVHLPQPVSTRDKTHTCPPCPAPELLGGPDVFLFPPKPKDTLMISRTPEVTCVVVDVSHEDPEVKFNWYVDGVEVHNAKTKPREEQYNSTYRVVSVLTVLHQDWLNGKEYKCKVSNKALPAPEEKTISKAKGQPREPQVCTLPPSRDELTKNQVSLSCAVKGFYPSDIAVEWESNGQPENNYKTTPPVLDSDGSFFLVSKLTVDKSRWQQGNVFSCSVMHEALHNRFTQKSLSLSPG
heavy 2: QIVLSQSPAILSASPGEKVTMTCRASSSVSYIHWFQKKPGSSPKPWIYATSNLASGVPVRFSGSGSGTSYSLTISRVEAEDAATYYCQQWTSNPPTFGGGTKVEIKSSASTKGPSVFPLAPSSKSTSGGTAALGCLVKDYFPEPVTVSWNSGALTSGVHTFPAVLQSSGLYSLKSVVTVPSSSLGTQTYICNVNHKPSNTKVDKKVEPKSCDKTHTCPPCPAPELLGGPDVFLFPPKPKDTLMISRTPEVTCVVVDVSHEDPEVKFNWYVDGVEVHNAKTKPREEQYNSTYRVVSVLTVLHQDWLNGKEYKCKVSNKALPAPEEKTISKAKGQPREPQVYTLPPCRDELTKNQVSLWCLVKGFYPSDIAVEWESNGQPENNYKTTPPVLDSDGSFFLYSKLTVDKSRWQQGNVFSCSVMHEALHNHYTQKSLSLSPG
light 1: DIQMTQSPSSLSASVGDRVTITCRASQDISKYLNWYQEKPGKAIKLLIYHTSRLHSGVPSRFSGSGSGTDFTLTISSLQPEDFATYYCQQGATLPYTFGPGTKLEIKRTVAAPSVFIFPPSDEQLKSGTASVKCLLNNFYPREAKVQWKVDNALQSGNSQESVTEQDSKDSTYSLSSTLTLSKADYEKHKVYACEVTHQGLSSPVTKSFNRGEC
light 2: QVQLQQPGAELVKPGASVKMSCKASGYTFTSYNMHWVKETPGRGLEWIGAIYPGNGDTSYNQKFKGKATLTADKSSSTAYMQLSSLTSEDSAVYYCARSTYYGGDWYFNVWGAGTLVTVSSASVAAPSVFIFPPSDEQLKSGTASVECLLNNFYPREAKVQWKVDNALQSGNSQESVTEQDSKDSTYSLSSTLTLSKADYEKHKVYACEVTHQGLSSPVTKSFNRGEC
On to B1, for which the dissociation constant (Kd) in experiment [1] is 305 nM; in experiment [2], 218 nM; in experiment [3] it was < 0.02 nM; in experiment [4], 4 nM; in experiment [5], 3.4 nM; in experiment [6] it was < 0.02 nM.

B2: Tafasitamab (antibody, human IgG1, kappa)
heavy: EVQLVESGGGLVKPGGSLKLSCAASGYTFTSYVMHWVRQAPGKGLEWIGYINPYNDGTKYNEKFQGRVTISSDKSISTAYMELSSLRSEDTAMYYCARGTYYYGTRVFDYWGQGTLVTVSSASTKGPSVFPLAPSSKSTSGGTAALGCLVKDYFPEPVTVSWNSGALTSGVHTFPAVLQSSGLYSLSSVVTVPSSSLGTQTYICNVNHKPSNTKVDKKVEPKSCDKTHTCPPCPAPELLGGPDVFLFPPKPKDTLMISRTPEVTCVVVDVSHEDPEVQFNWYVDGVEVHNAKTKPREEQFNSTFRVVSVLTVVHQDWLNGKEYKCKVSNKALPAPEEKTISKTKGQPREPQVYTLPPSREEMTKNQVSLTCLVKGFYPSDIAVEWESNGQPENNYKTTPPMLDSDGSFFLYSKLTVDKSRWQQGNVFSCSVMHEALHNHYTQKSLSLSPG
light: DIVMTQSPATLSLSPGERATLSCRSSKSLQNVNGNTYLYWFQQKPGQSPQLLIYRMSNLNSGVPDRFSGSGSGTEFTLTISSLEPEDFAVYYCMQHLEYPITFGAGTKLEIKRTVAAPSVFIFPPSDEQLKSGTASVVCLLNNFYPREAKVQWKVDNALQSGNSQESVTEQDSKDSTYSLSSTLTLSKADYEKHKVYACEVTHQGLSSPVTKSFNRGEC
For B2, the Kd in experiment [1] was 76.2 nM; in experiment [2] it was 53 nM; in experiment [3] it was < 0.02 nM; in experiment [4], 181 nM; in experiment [5] it was 152 nM; in experiment [6], 1.8 nM.

B3: Rituximab (antibody)
VH: not shown
VL: QIVLSQSPAILSASPGEKVTMTCRASSSVSYIHWFQQKPGSSPKPWIYATSNLASGVPVRFSGSGSGTSYSLTISRVEAEDAATYYCQQWTSNPPTFGGGTKLEIKRTVAAPSVFIFPPSDEQLKSGTASVVCLLNNFYPREAKVQWKVDNALQSGNSQESVTEQDSKDSTYSLSSTLTLSKADYEKHKVYACEVTHQGLSSPVTKSFNRGEC
Turning to B3, the Kd in experiment [3] was < 0.02 nM.
